Like-named read-outs stand apart in the source and are kept apart here.
What was measured:
[1] = molecular target: truncated M2 peptide SEQ ID NO 313; assay: peptide ELISA, 5 µg/mL
[2] = molecular target: truncated M2 peptide SEQ ID NO 298; assay: peptide ELISA, 5 µg/mL
[3] = molecular target: truncated M2 peptide SEQ ID NO 308; assay: peptide ELISA, 5 µg/mL
[4] = molecular target: truncated M2 peptide SEQ ID NO 303; assay: peptide ELISA, 5 µg/mL
[5] = molecular target: truncated M2 peptide SEQ ID NO 304; assay: peptide ELISA, 5 µg/mL
[6] = molecular target: truncated M2 peptide SEQ ID NO 311; assay: peptide ELISA, 5 µg/mL
[7] = molecular target: truncated M2 peptide SEQ ID NO 314; assay: peptide ELISA, 5 µg/mL
[8] = molecular target: truncated M2 peptide SEQ ID NO 299; assay: peptide ELISA, 5 µg/mL
[9] = molecular target: truncated M2 peptide SEQ ID NO 312; assay: peptide ELISA, 5 µg/mL
[10] = molecular target: truncated M2 peptide SEQ ID NO 316; assay: peptide ELISA, 5 µg/mL
[11] = molecular target: truncated M2 peptide SEQ ID NO 301; assay: peptide ELISA, 5 µg/mL
[12] = molecular target: truncated M2 peptide SEQ ID NO 310; assay: peptide ELISA, 5 µg/mL
[13] = molecular target: truncated M2 peptide SEQ ID NO 302; assay: peptide ELISA, 5 µg/mL
[14] = molecular target: truncated M2 peptide SEQ ID NO 306; assay: peptide ELISA, 5 µg/mL
M2 peptide SEQ ID NO 273 = assay: peptide ELISA, 5 µg/mL
[15] = molecular target: truncated M2 peptide SEQ ID NO 271; assay: peptide ELISA, 5 µg/mL
[16] = molecular target: truncated M2 peptide SEQ ID NO 307; assay: peptide ELISA, 5 µg/mL
[17] = molecular target: truncated M2 peptide SEQ ID NO 300; assay: peptide ELISA, 5 µg/mL
[18] = molecular target: truncated M2 peptide SEQ ID NO 309; assay: peptide ELISA, 5 µg/mL
[19] = molecular target: truncated M2 peptide SEQ ID NO 315; assay: peptide ELISA, 5 µg/mL
[20] = molecular target: truncated M2 peptide SEQ ID NO 305; assay: peptide ELISA, 5 µg/mL
[21] = molecular target: 23 amino acid synthetic M2e peptide of A/Fort Worth/1/50 (H1N1) (influenza A virus A/Fort Worth/1/50 (H1N1)); assay: ELISA on coated 23mer M2e peptide
A.Hong Kong.1.68.H3N2 [22] = molecular target: T1, A.Hong Kong.1.68.H3N2; assay: FACS, transfected 293 cells, 1 µg/mL
T1 M2: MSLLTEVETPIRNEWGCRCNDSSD

A.Caracas.1.71.H3N2 [23] = molecular target: T2, A.Caracas.1.71.H3N2; assay: FACS, transfected 293 cells, 1 µg/mL
T2 M2: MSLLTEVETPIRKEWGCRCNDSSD

[24] = molecular target: truncated M2 peptide SEQ ID NO 298; assay: peptide ELISA, 5 µg/mL; remark: listed apart in the source
[25] = molecular target: truncated M2 peptide SEQ ID NO 299; assay: peptide ELISA, 5 µg/mL; remark: listed apart in the source
[26] = molecular target: truncated M2 peptide SEQ ID NO 309; assay: peptide ELISA, 5 µg/mL; remark: listed apart in the source
A.Hong Kong.1144.99.H3N2 = molecular target: T3, A.Hong Kong.1144.99.H3N2; assay: FACS, transfected 293 cells
T3 M2: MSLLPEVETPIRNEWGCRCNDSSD

A.Hong Kong.1180.99 H3N2 = molecular target: T4, A.Hong Kong.1180.99 H3N2; assay: FACS, transfected 293 cells
T4 M2: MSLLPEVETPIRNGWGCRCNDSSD

A.Hong Kong.1.68.H3N2 [27] = molecular target: T1, A.Hong Kong.1.68.H3N2; assay: FACS, transfected HEK293, 1 µg/ml [D00006 FIG. 3C-1]
A.Caracas.1.71.H3N2 [28] = molecular target: T2, A.Caracas.1.71.H3N2; assay: as above

14C2 (chimeric mouse V-region/human IgG1 kappa 14C2 antibody)
ELISA A450 [1]: 0.21
ELISA A450 [2]: 3.94
ELISA A450 [3]: 3.9
ELISA A450 [4]: 0.19
ELISA A450 [5]: 0.23
ELISA A450 [6]: 0.18
ELISA A450 [7]: 0.17
ELISA A450 [8]: 3.95
ELISA A450 [9]: 0.2
ELISA A450 [10]: 0.14
ELISA A450 [11]: 0.19
ELISA A450 [12]: 3.97
ELISA A450 [13]: 0.23
ELISA A450 [14]: 0.27
ELISA A450 (M2 peptide SEQ ID NO 273): 3.85
ELISA A450 [15]: 0.21
ELISA A450 [16]: 3.99
ELISA A450 [17]: 0.15
ELISA A450 [18]: 3.97
ELISA A450 [19]: 0.15
ELISA A450 [20]: 0.22
EC50 [21]: 0.01 µg/mL

B1: 23K12 (antibody, V domains shown)
VH: EVQLVESGGGLVQPGGSLRISCAASGFTVSSNYMSWVRQAPGKGLEWVSVIYSGGSTYYADSVKGRFSFSRDNSKNTVFLQMNSLRAEDTAVYYCARCLSRMRGYGLDVWGQGTTVTVS
VL: DIQMTQSPSSLSASVGDRVTITCRTSQSISSYLNWYQQKPGKAPKLLIYAASSLQSGVPSRFSGSGSGTDFTLTISGLQPEDFATYYCQQSYSMPAFGQGTKLEIK
binding result (A.Hong Kong.1.68.H3N2 [22]): binds
binding result (A.Caracas.1.71.H3N2 [23]): binds
ELISA A450 [24]: 0.21
ELISA A450 [25]: 0.21
ELISA A450 [26]: 0.3
binding result (A.Hong Kong.1144.99.H3N2): no binding (tested: 1 µg/mL)
binding result (A.Hong Kong.1180.99 H3N2): no binding (tested: 1 µg/mL)

B2: 8I10 (antibody, V domains shown)
VH: QVQLQESGPGLVKPSETLSLTCTVSGSSISNYYWSWIRQSPGKGLEWIGFIYYGGNTKYNPSLKSRVTISQDTSKSQVSLTMSSVTAAESAVYFCARASCSGGYCILDYWGQGTLVTVS
VL: DIQMTQSPSSLSASVGDRVTITCRASQNIYKYLNWYQQRPGKAPKGLISAASGLQSGVPSRFSGSGSGTDFTLTITSLQPEDFATYYCQQSYSPPLTFGGGTRVEIK
binding result (A.Hong Kong.1.68.H3N2 [27]): binds
binding result (A.Caracas.1.71.H3N2 [28]): binds
binding result (A.Hong Kong.1144.99.H3N2): no binding (tested: 1 µg/mL)
binding result (A.Hong Kong.1180.99 H3N2): no binding (tested: 1 µg/mL)
